Here are results for five variants from FireProtDB (doi:10.1016/0022-2836(91)90725-l).

B1: Ribonuclease, P00648 (parent)
chain: MMKMEGIALKKRLSWISVCLLVLVSAAGMLFSTAAKTETSSHKAHTEAQVINTFDGVADYLQTYHKLPDNYITKSEAQALGWVASKGNLADVAPGKSIGGDIFSNREGKLPGKSGRTWREADINYTSGFRNSDRILYSSDWLIYKTTDHYQTFTKIR

In this series the parent is B1. To be noted: Bacillus amyloliquefaciens; pH 6.3; 25 °C; Urea; Fluorescence; MES 1.00 M; NaCl 613 mM; reversible: yes; structure 1BNI; whole UniProt chain shown.

Consider MMKMEGIALKKRLSWISVCLLVLVSAAGMLFSTAAKTETSSHKAHTEAQVINTFDGVADFLQTFHKLPDNYITKSEAQALGWVASKGNLADVAPGKSIGGDIFSNREGKLPGKSGRTWREADINYTSGFRNSDRILYSSDWLIYKTTDHYQTFTKIR [Y60F Y64F], for which the “ddG of mutation (higher = less stable)” value came to 1.23 kcal/mol, the denaturant m value worked out at 2.08 kcal/mol/M, the “denaturant midpoint (higher = more stable)” value (from here on “denaturant midpoint”) turned out to be 4.29 M and the unfolding free energy amounted to 8.92 kcal/mol.
With MMKMEGIALKKRLSWISVCLLVLVSAAGMLFSTAAKTETSSHKAHTEAQVINTFDGVADALQTAHKLPDNYITKSEAQALGWVASKGNLADVAPGKSIGGDIFSNREGKLPGKSGRTWREADINYTSGFRNSDRILYSSDWLIYKTTDHYQTFTKIR [Y60A Y64A], the “ddG of mutation (higher = less stable)” value came to 4.76 kcal/mol, the denaturant m value came out at 2.22 kcal/mol/M, the “denaturant midpoint” value is 2.43 M and the unfolding free energy was 5.39 kcal/mol.
Consider MMKMEGIALKKRLSWISVCLLVLVSAAGMLFSTAAKTETSSHKAHTEAQVINTFDGVADYLQTFHKLPDNYITKSEAQALGWVASKGNLADVAPGKSIGGDIFSNREGKLPGKSGRTWREADINYTSGFRNSDRILYSSDWLIYKTTDHYQTFTKIR [Y64F], for which the “ddG of mutation (higher = less stable)” value is 0.58 kcal/mol, the denaturant m value worked out at 2.16 kcal/mol/M, the “denaturant midpoint” value came to 4.43 M and the unfolding free energy stood at 9.57 kcal/mol.
MMKMEGIALKKRLSWISVCLLVLVSAAGMLFSTAAKTETSSHKAHTEAQVINTFDGVADFLQTYHKLPDNYITKSEAQALGWVASKGNLADVAPGKSIGGDIFSNREGKLPGKSGRTWREADINYTSGFRNSDRILYSSDWLIYKTTDHYQTFTKIR [Y60F]: the “ddG of mutation (higher = less stable)” value was 0.63 kcal/mol, the denaturant m value came out at 2.17 kcal/mol/M, the “denaturant midpoint” value came out at 4.38 M and the unfolding free energy turned out to be 9.52 kcal/mol.
The like results for MMKMEGIALKKRLSWISVCLLVLVSAAGMLFSTAAKTETSSHKAHTEAQVINTFDGVADALQTYHKLPDNYITKSEAQALGWVASKGNLADVAPGKSIGGDIFSNREGKLPGKSGRTWREADINYTSGFRNSDRILYSSDWLIYKTTDHYQTFTKIR [Y60A] were, in that order, 3.69 kcal/mol, 2.26 kcal/mol/M, 2.86 M and 6.46 kcal/mol.
